Values of other authors, collected in article PMC10347550, “Cyclic Ruthenium-Peptide Conjugates as Integrin-Targeting Phototherapeutic Prodrugs for the Treatment of Brain Tumors” (Journal of the American Chemical Society, 2023).

Target: fibrinogen (Homo sapiens) (UniProt P02671)
Sequence (P02671 36-866, chain 1 of 3): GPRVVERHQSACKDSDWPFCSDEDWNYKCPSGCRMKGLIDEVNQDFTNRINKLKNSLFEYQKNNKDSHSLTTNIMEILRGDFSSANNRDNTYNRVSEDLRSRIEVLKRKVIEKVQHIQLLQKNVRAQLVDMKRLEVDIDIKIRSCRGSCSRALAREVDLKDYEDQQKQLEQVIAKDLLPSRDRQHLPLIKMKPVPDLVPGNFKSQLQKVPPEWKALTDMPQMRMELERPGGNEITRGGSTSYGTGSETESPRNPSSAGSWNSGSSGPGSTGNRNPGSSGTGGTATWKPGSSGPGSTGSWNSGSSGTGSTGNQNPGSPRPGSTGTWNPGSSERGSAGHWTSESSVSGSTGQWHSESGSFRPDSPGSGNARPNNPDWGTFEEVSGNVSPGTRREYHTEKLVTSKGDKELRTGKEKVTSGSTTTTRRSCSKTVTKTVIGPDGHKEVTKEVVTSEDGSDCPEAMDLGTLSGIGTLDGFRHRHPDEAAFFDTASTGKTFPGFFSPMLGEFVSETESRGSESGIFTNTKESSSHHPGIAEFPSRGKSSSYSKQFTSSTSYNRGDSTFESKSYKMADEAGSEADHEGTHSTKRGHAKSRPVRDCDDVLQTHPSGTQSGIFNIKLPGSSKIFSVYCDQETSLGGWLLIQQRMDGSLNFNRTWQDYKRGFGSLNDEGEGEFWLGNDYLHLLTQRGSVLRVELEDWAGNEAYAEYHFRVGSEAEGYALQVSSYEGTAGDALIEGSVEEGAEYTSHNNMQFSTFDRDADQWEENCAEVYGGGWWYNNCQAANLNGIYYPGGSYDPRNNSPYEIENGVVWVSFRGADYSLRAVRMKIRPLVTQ
Sequence (P02675 45-491, chain 2 of 3, further chain): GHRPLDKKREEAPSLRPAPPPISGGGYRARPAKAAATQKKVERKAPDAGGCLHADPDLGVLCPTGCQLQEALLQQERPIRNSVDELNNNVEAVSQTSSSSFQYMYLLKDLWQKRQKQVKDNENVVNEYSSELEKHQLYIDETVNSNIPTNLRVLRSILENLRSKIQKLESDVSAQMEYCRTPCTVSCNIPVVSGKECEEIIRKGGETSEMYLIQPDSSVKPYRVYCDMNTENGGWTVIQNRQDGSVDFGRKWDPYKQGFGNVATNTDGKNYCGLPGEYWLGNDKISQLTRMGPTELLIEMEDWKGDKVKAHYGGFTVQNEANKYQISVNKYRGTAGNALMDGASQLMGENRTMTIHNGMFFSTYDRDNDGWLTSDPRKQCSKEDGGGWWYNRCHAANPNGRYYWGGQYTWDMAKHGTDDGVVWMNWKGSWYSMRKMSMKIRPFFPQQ
Sequence (P02679 27-453, chain 3 of 3, further chain): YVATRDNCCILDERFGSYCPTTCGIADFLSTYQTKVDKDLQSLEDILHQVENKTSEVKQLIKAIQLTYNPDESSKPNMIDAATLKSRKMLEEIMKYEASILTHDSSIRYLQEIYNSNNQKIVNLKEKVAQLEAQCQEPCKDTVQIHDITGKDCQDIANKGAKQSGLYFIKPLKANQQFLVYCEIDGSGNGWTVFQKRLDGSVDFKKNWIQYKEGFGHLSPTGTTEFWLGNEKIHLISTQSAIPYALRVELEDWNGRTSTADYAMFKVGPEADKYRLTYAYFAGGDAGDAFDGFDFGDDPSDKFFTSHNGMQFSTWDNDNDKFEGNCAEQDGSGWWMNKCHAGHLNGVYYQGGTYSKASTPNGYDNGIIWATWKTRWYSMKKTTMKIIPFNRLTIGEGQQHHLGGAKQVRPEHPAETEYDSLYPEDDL

Kd: 30 nM
Substance: integrin αIIbβ3 (from UniProt P08514)
